Here are results for 5 substances from US5064430A, “Polynonapeptide bioelastomers having an increased elastic modulus” (UAB Research Foundation, priority 1989, dated 1991).

Like-named read-outs stand apart in the source and are kept apart here. Ends that are not written are not given here.

Series [1] can be described thus: Temperature profiles of turbidity formation / coacervation (light scattering at 300 nm). The series is classed as physicochemical. The conditions noted are these: for onset of aggregation (coacervation): high molecular weight polymer in water; for midpoint of the temperature profile of turbidity formation / coacervation: 40 mg/ml (high concentration limit). On the procedure:
FIG. 3 illustrates temperature profiles of turbidity (TP.tau.) data for poly(VPGFGVGAG) at 40 mg/ml and 1 mg/ml concentrations in H2 O. The aggregational process was monitored by measuring light scattering at 300 nm as a function of temperature using a Cary 14 recording spectrophotometer.
The temperature dependence for aggregation of the polypentapeptide is followed as the development of turbidity at 300 nm using a Cary 14 spectrophotometer. The sample cell is placed within a chamber vibrating at 300 Hz in order to facilitate equilibrium and to keep the aggregates from settling. The scan rate is 30° C./hour and the temperature was controlled with a Neslab ETP-3 programmer and monitored with an Omega 199A thermocouple monitor placed at the cell. The turbidity as a function of temperature provides a temperature profile for coacervation which is found to be concentration dependent. As the concentration is raised, the profile shifts to lower temperatures until further increases in concentration cause no further lowering of the temperature for aggregation. This defines the high concentration limit. The temperature for the onset of coacervation at the high concentration limit coincides with the temperature for the onset of the transition within the coacervate itself, even when there is no appreciable change in water content of the coacervate. […] When the midpoint is 25° C. for the PPP, the molecular weight is close to 100,000 daltons as calibrated by dialysis. For the Ile^1 -PPP with a midpoint of 9° C., the molecular weight is greater than 50,000 daltons, as the synthetic polypeptide was retained by a 50,000 daltons dialysis membrane. The dialysis was carried out at 4° C. where the Ilel-PPP is in solution.
Polypeptide coacervation in water is reversible aggregation to form a new phase with a distinct composition. Association occurs on raising the temperature, disassociation on lowering the temperature. The process of coacervation was followed by monitoring the turbidity as a function of temperature using a Cary 14 spectrophotometer set at 300 nm, a Neslab ETP-3 temperature programmer with a 30° C./hour scan rate and an Omega 199A thermocouple monitor. The sample cell was placed in a vibrating chamber (300 Hz) to keep the aggregates from settling and to facilitate equilibrium. The temperature profiles for coacervation are concentration dependent. Dilution from a high concentration, after the high concentration limit is reached (approximately 40 mg/ml for high molecular weight elastomeric polypeptides), results in a shift of the turbidity profile to higher temperature.

The nature of series [2]: Thermoelasticity studies (elastomeric force as a function of temperature). The series is classed as physicochemical. The conditions noted are these: γ-irradiation cross-linked (20 Mrad), fixed extension (40%), in water. As for the experimental part: Thermoelasticity studies were carried out on a stress-stain instrument built in this Laboratory. The sample is mounted in two Delrin clamps. The top clamp is attached to a Statham UTC strain-gauge and the assembly is fixed. The bottom clamp is attached to a moving platform driven by a variable speed motor. Both clamps are enclosed in a thermostated water jacket. An inner chamber contains the solvent in which the elastomer is immersed which in this case is doubly distilled water. The sample was fixed in the top clamp and equilibrated in water at 60° C. for about an hour. The strain-gauge signal conditioner was balanced for zero force and the bottom clamp was attached to the sample. The sample was left to set overnight at room temperature. The bottom clamp was then adjusted for zero force and the distance between the clamps was measured. The elastomer was elongated to 40% extension at 5° C. and elastomeric force was then determined as a function of temperature. Equilibrium time to achieve constant force at a given temperature was typically twenty-four hours. Force measurements were made in 2° C. increments through the sharp rise in force and 5° C. increments at higher temperatures.
Thermoelasticity studies were carried out on a stress-strain apparatus. Clamping of the sample in the holder was done in two stages to prevent damage to the material at the clamp edge. The sample was first gripped lightly with the top clamp, raised to 60° C. while submerged in water within the temperature jacket and allowed to equilibrate for about 2 hours. The measured force consisting of the weight of the sample and grips in water were set to zero. The bottom grip was then attached to the sample and both grips tightened to hold the sample firmly. The bottom clamp was driven as in a stress-strain measurement and stopped at 40% elongation. Force data were recorded in 5° C. steps starting at 70° C. and continuing to 40° C. where the force approached zero.

For series [3] the following is noted: high molecular weight, cross-linked by γ-irradiation (background); cited from earlier work.
Series [4] is described as follows: Solubility in water as a function of temperature. Type of series: physicochemical.
The subject of the next series is fibroblasts. The experiment in a line: Checkerboard assay of Zigmond and Hirsch (chemotaxis) with fibroblasts. The series is classed as cell-based. An excerpt: The chemotaxis of the present polynonapeptide towards fibroblasts and endothelial cells can be determined and verified by the well known checkerboard assay of Zigmond and Hirsch. […] Checkerboard analysis of AGVPGFGVG and GFGVGAGVP sequences with fibroblasts using the procedure as described above afforded the following results which are represented graphically in Tables I and II.

The nature of series [5]: Stress/strain studies of γ-irradiation cross-linked matrices (elastic modulus). Type of series: physicochemical. The settings on record: 25 Mrad cross-linking dose.

For “(Val-Pro-Gly-Val-Gly)n (VPGVG; also: polymer of repeating pentamer, (VPGVG)n) [PPP, reference compound]”, the “onset of aggregation (coacervation)” value in series [1] is 24 °C. In addition, the “midpoint of the temperature profile of turbidity formation / coacervation” value (from here on “midpoint … of turbidity formation / coacervation”) in series [1] (in water) is 25 °C. Moreover, in series [2], the “temperature of essentially full elastic contraction / maximal elastomeric force” value was determined as 40 °C. In addition, in series [3], the elastic modulus is ~10^6 dynes/cm^2.

For the substance “H-(Gly-Gly-Val-Pro)n -OH (H-GGVP-OH; also: repeated n times (polymer)) [PTP]”, in series [1], the “onset of aggregation (coacervation)” value came out at 48 °C. In series [1] (in water), the “midpoint … of turbidity formation / coacervation” value is 49 °C. Further, the “temperature below which soluble in water” value in series [4] was “below 40 °C”. In addition, the “temperature of essentially full elastic contraction / maximal elastomeric force” value in series [2] is approximately 70 °C.

On to “H-(Gly-Val-Gly-Ile-Pro)n -OH (H-GVGIP-OH; also: polymer, (GVGIP) repeated n times) [Ile^1 -PPP]”, for which the “onset of aggregation (coacervation)” value in series [1] is approximately 8 °C. The “midpoint … of turbidity formation / coacervation” value in series [1] (in water) turned out to be 9 °C. Moreover, the “temperature below which soluble in water” value in series [4] is “below 8 °C”. Moreover, in series [2], the “temperature of essentially full elastic contraction / maximal elastomeric force” value is “about 25 °C”.

Turning to PDGF, the “Checkerboard analysis with fibroblasts, positive control” value was determined as 59 in the series with fibroblasts (PDGF at 30 μg/ml (Table II experiment)) and 21 with fibroblasts (PDGF at 60 μg/ml (Table I experiment)).

As for “Poly[Ala-Gly-Val-Pro-Gly-Phe-Gly-Val-Gly]-OH [poly(VPGFGVGAG)]”, the “midpoint of the temperature profile of turbidity formation” value in series [1] (in water, 1 mg/ml) is “about 11 °C”. Moreover, in series [1] (in water), the “midpoint … of turbidity formation / coacervation” value was “about 8 °C”. For the same substance, the “temperature below which soluble in water” value in series [4] was “below 5 °C”. For the same substance, the elastic modulus in series [5] is 10^8 dynes/cm^2.
